Assay: soluble fraction after stress (log2 fold change); higher = more stays soluble; pooled small domains, quantitative proteomics
Settings: stress: pH 4
Outline: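 Pooled custom libraries of small protein domains were subjected to pH 4 and measured by high-throughput quantitative proteomics. The log2 fold change in soluble amount per domain is reported, higher values meaning more remained soluble. This is used as a measure of aggregation propensity.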

| Sequence | soluble fraction (log2) |
| --- | --- |
| HMKGERHNKILELIQQHAIDRQEDLLRYLKEAGFQVTQATVSRDIRELHLVKVAAGGGQYRYVSAAAAS | -0.255 |
| HMKGIHDYITKDGLRVVKVHYSADPDKDVTTVEGKKWMAKALLGYPGGLEGAKWRREMEIDFNA | -0.258 |
| HMKGILVPASSIISDGDKNYVWTVEKGKAKKVEVTLGNADAENQEISSGLTKDSKVITNPTDSLKDGQEV | 0.269 |
| HMKGKDLQDAVVTVVGGAENWNAIRAWAQASASDSEKREINAAFQSGKLMATMMAERLALAYQQSG | 0.0105 |
| HMKGKITTNWVSLTSDLGWLRSELYSSGSVLEERISNEGLIELHLENFQNDLIKLLEVEGFDLIKE | -1.73 |
| HMKGQLVVFPNPASSNDMVRFNKNISFSIFDITGHLVDTKRNVNELSVGNLEAGTYILRTEQGDVLRMVI | -0.904 |
| HMKGRPTTAIITDERTNLRSGPGATNKTIAQAGAGEKLAIIDEKDGWYQVSRAGINGWVAGWVIDVAW | -0.945 |
| HMKGSIFLDEATKMVDNSALKSLNTFLEEYARETNNQIFLISHQETPAEVTQIKLKKVGGETSYE | -0.0644 |
| HMKGSPFSQLPKEKKKRILQAAIEVFAQNDYKHASTDEIASRAGISKGLLFYYFHDKKTLYFYLGEYLKR | 0.173 |
| HMKGTLPEMITSREEVVLKFMVNGWDAKRIASELDISVLTVRKHIANIYEKLHVQSKAEIISMAHQQKWFN | -0.731 |
| HMKGTSIELIVPQDIAGLRLDQVLAKLLPQWSRSRLQSWINEKHITVNGQTTTAKQKLWGNETIQIIPPI | -0.0718 |
| HMKHEFSEEWLDWIKSNIADGQNKNGLFKVLLNHGYAYDAVREVMQYEPTVPLDELVDPLRA | -0.953 |
| HMKHFNDEELDGFAGLKSDDYNEEQVELFRNIFEELHPDEIIEWTESLRRRGIEIPSSLKDEVVMMIN | -1.69 |
| HMKHFTYEEMELMSIYDPGTREGLIANLEEMRGYLEPDETELRELTDSALEKLRELSDADYEQLELI | -1.48 |
| HMKHMTMYEAAKIAKEVGAPKLWLTHYSPSMTRPEEFMDDVRKIFPAAYAAKDGWTMELNFDEG | -0.385 |
| HMKHRTQMDIQQLPAIEGKGGFEYKISIIHLSTRIKYSEIHDNYNTTTIAKVYENAIERLPPF | -1.13 |
| HMKHSLNHLGLWLLPELSRRDIQLREFAHLLGTTSQGLSDLLRGQRFSSHTLAQWQLRFQEKLDEIDQAS | -0.236 |
| HMKHTVSVDRLQPGVFVSLGGLSWLDHPFLLNRFRLTDHDQIKVLRSLGVKEIEWDPTRSTAQPLPE | -0.724 |
| HMKIAPRTAENQQLRKMILEIYTTSKKRVGPAKVRRMLLRDYGISISIGRVYRLMSTMNLPKMS | 0.22 |
| HMKIDLPIWLNKKAWEAWVEYKKERKQKLTPSIIKFQLRILEKNKEDHPEIIRNSITNGWTGLFPLK | -0.347 |
| HMKIEDSNTIKLKANQAYKTHYYSEAIKLYDELLTKYEPNSEAIKLNLAHAHFKAKGFAAASKLYT | 0.22 |
| HMKIELTDQQKSLVVDEWNKGEANPPSLLQLIRLAYPDQPHLDGRSKEGKAVKAFLATRDINPLA | -0.0382 |
| HMKIETVENPLLERTEISALFDSKSGSLTRKEAIDLISKKARIDSSTVYAIKLSNSSGSTRIIGLFY | 0.00271 |
| HMKIIDDIQEFAGVTKTQNTFFHIFNHLHQNGKQLILTSDRAPVMLQGMEERLLTRFKWGLVAELE | 0.158 |
| HMKIKKIWFDGDYIYGMDERNNTYRQSLLWYSKLRNASAEERERYTFSTIGIHWRELDEDVSFESF | -1.78 |

| Sequence | soluble fraction (log2) |
| --- | --- |
| HMKIKLQATEQQRKTLDELYVQLKKLEPTSKEDLSLLYRLENPHLVSKQEAQGLISIAIGRVGSLAIEQQ | 0.258 |
| HMKINKQHLAFQIFGIRAKLGLSMEQFGELLGANKSSVSGWERGTVVPSSQRLKKIAELGKISLAELLTP | 0.276 |
| HMKINVQETEVYRYLLERADRLYSMILGEERENLMERTRFFEKEVAKASLPHLPKLYDEFSIYLDRLERG | -0.555 |
| HMKIPYGELIKLLNAAAPKLQDAQGWMDMEAAGQFIGSRWSYLDYGFKDWPDSFKTVHGLEIQGQRMRLA | -0.306 |
| HMKIQISGSQRIDENVVVKVAGLSFPQSLLSLEPGQIESKLMQELPVQEVSVQRRLLPPGLDIQLVE | -0.246 |
| HMKIQTYEDFRNAYPDIQGSLFGSAERYKTDLDWGDVAAKYDADEELKNVRNIFQLVRRYEQKYS | -0.643 |
| HMKISIPQEYFEIYNVLKQRPMHINEISKILKKPVSEISGTISLMEIEGYITKLTTDQYVLKKI | -0.644 |
| HMKITADQEIETAINYFKKSIAEKGWKGVNPDEFKQMNDYLSETFGYSATIKFQKALDEQGLMVDE | -0.429 |
| HMKITININIETLSHHIKQSGVPLGRLQESVPDYNEIVTGNKSPTYQQLEKISKLIRVPLGLLVIESPL | -0.451 |
| HMKITLAESVYERIRRDIITNQLKPGEKINIRELSTRYEASETPIRLALNRLASENIIEHFPRQGMRVK | -0.0624 |
| HMKIVPEPGTVLIREYQEERHEVTVTLDGAFDYKGTLYSSLSEIARLITGTRWSGPVFFGLRS | -0.353 |
| HMKIYDQVVDRIKDRISKGDMPQGSALPPERQLIDELNVSRSSLREGFRILEMMGLIESIPGKGRFVRTSR | -0.619 |
| HMKKAIYPGSFDPLTLGHIDIIKRASGIVDELVVGVLNNSAKNSLFSLDERVSMIEEMTKDLPNVSVTSFD | -0.0125 |
| HMKKEDFLEILRDYLKKGFSEDEVMDILRDYEEYFVDGIIEGKSEIEIIQSLGSPKEIANELLAES | -0.754 |
| HMKKEQVIVPNVVGDTYDVALRKLTDAKLKVGETFPADREGHQGVIEKQSPAAGETVDEDTPVALFFKV | -0.384 |
| HMKKERITWDERLERFAKYITENESLPYPSSKEHAWFEENKALYDAGELESVRAQSFSFLLKILRRMNLI | -0.449 |
| HMKKGATVSGVIVEKTKKSLIIDLGAKTEGVVADKEFEFAIDFVKELKKGDEVKAIVISTDNDKGQVVLSL | ≥ 0.43 |
| HMKKHALFTLFKHHNANGTTVWYARFWDDATQRYAIARSTGVLAQGKRERHDEAITVAREMASSIQFS | 0.264 |
| HMKKHAPSLMRQIRRELKEGKSPESLLSKAKLISDSYYRSLSFYLLIPYLSPNSKQFQEAISLAGKDID | -0.216 |
| HMKKKSYIVSFATDEDAQRFAREGFEVISLSGRQITVSLKGEMMPLVKALGSYQVVGLETVA | -0.72 |
| HMKKLPDDANDIIERVSSRLAQKFRFGYHTIDDMKQQAALFAWEGIYDSWDDSRPLENFLWIHVRNRLYN | 0.18 |
| HMKKLTGVQKAAILMIALGPDISSSIIKRLPENMVERITYEIANMTKITAQQRNDILKEFMDMTVAQ | -0.479 |
| HMKKNTEALDYYKKAGANFPEDEVISSEYLFRAAQLQEVLGKTDEAVAIYKDIKAKYPTTEIGLNVDKFIL | -0.181 |
| HMKKQLKSEAVADELRRKILSGGFPDKRLPRKDELTEYFQVSQKTVEAALKMLTAEGLIRGVKGTGIFVNG | 0.156 |
| HMKKQLTISDGDWAGKVSSMLEDMGVINSASEFDKYLSDNGYSNVIKSGTYDVSPEDTFQELAEKIT | -1.05 |
